Read-outs that look alike come from different tables or passages of the source.
What was measured:
[1] = biological target: T1, Claudin 18.2 (CLDN18.2), expressed on CHOS-CLDN 18.2 / HEK293-CLDN 18.2 / HCC827-CLDN 18.2 cells (human, UniProt P56856 1-261); assay: ELISA
[2] = biological target: T1, Claudin 18.2 (CLDN18.2), expressed on …; assay: ELISA; remark: listed apart in the source

Binder | EC50 [1] [mg/L] | EC50 [2] [mg/L]
QP14441441 (antibody, V domains shown) VH: QVQLVQSGAEVKKPGASVKVSCKASGYAFSSYWMNWVRQAPGQGLEWIGQIYPGNGDTTYNGKFKGRVTMTADKSTSTVYMELSSLRSEDTAVYYCARFVKGNAMDYWGQGTLVTVSS VL: DIVMTQSPDSLAVSLGERATISCKSSQSLLNSGNQKNYLTWYQQKPGQPPKLLIYWASTRESGVPDRFSGSGSGIDFTLTISSVQAEDVAVYYCQNAYSYPFTFGQGTKLEIKR | 0.106 | –
QP14641461 (antibody, V domains shown) VH: EVQLVQSGAEVKKPGASVKVSCKASGYTFTSYIMHWVRQAPGQGLEWIGYINPYNDGTKYNEKFKGRVTLTRDKSTSTVYMELSSLRSEDTAVYYCARLGFTTRNAMDYWGQGTLVTVSS VL: DIVMTQSPDSLAVSLGERATINCKSSQSLLNSGNQKNYLAWYQQKPGQPPKLLIYGASTRESGVPDRFTGSGSGTDFTLTISSLQAEDVAVYYCQNDHSYPFTFGQGTKLEIKR | – | 0.0783
QP14651460 (antibody, V domains shown) VH: EVQLVQSGAEVKKPGASVKVSCKASGYTFTSYIMHWVRQAPGQGLEWIGYINPYNDGTKYNEKFKGRVTLTSDKSTSTVYMELSSLRSEDTAVYYCARLGFTTRNAMDYWGQGTLVTVSS VL: DIVMTQSPDSLAVSLGERATINCKSSQSLLNSGNQKNYLAWYQQKPGQPPKLLIYGASTRESGVPDRFSGSGSGTDFTLTISSLQAEDVAVYYCQNDHSYPFTFGQGTKLEIKR | – | 0.0904
QP14451440 (antibody, V domains shown) VH: QVQLVQSGAEVKKPGASVKVSCKASGYAFSSYWMNWVRQAPGQGLEWIGQIYPGNGDTTYNGKFKGRVTMTADKSTSTVYMELSSLRSEDTAVYFCARFVKGNAMDYWGQGTLVTVSS VL: DIVMTQSPDSLAVSLGERATISCKSSQSLLNSGNQKNYLTWYQQKPGQPPKLLIYWASTRESGVPDRFSGSGSGTDFTLTISSLQAEDVAVYYCQNAYSYPFTFGQGTKLEIKR | 0.0995 | –
QP14451442 (antibody, V domains shown) VH: QVQLVQSGAEVKKPGASVKVSCKASGYAFSSYWMNWVRQAPGQGLEWIGQIYPGNGDTTYNGKFKGRVTMTADKSTSTVYMELSSLRSEDTAVYFCARFVKGNAMDYWGQGTLVTVSS VL: DIVMTQSPDSLAVSLGERATISCKSSQSLLNSGNQKNYLTWYQQKPGQPPKMLIYWASTRESGVPDRFSGSGSGIDFTLTISSVQAEDVAVYYCQNAYSYPFTFGQGTKLEIKR | 0.0977 | –

Source: patent US20230183352A1 (published 2023)
